# B1: Antibody 77 (antibody, V domains shown)
# VH: QSVEESGGRLVTPGTPLTLTCTISGFSLNNYWMSWVRQAPGKGLEWIGIISSSDTTWYASWAKGRFTISRTSTTVDLKMTSLTTEDTATYFCARDRGDVGYSDLDLWGPGTLVTVSS
# VL: AYDMTQTPASVEVAVGGTVTIKCQASQSISSYLSWYQQKPGQPPKLLIYKASTLASGVSSRFSGSGSGTEFTLTISGVQCDDAATYYCQQGYSESNLDNAFGGGTEVVVK
# notes: rabbit IgG in B-cell supernatant
# B2: Antibody 48 (antibody, V domains shown)
# VH: QSLEESGGDLVKPGASLTLTCTASGFDLNSDYWICWVRQAPGKGLEWIACIDTGYGDIYYASWAKGRFTISKTSSTTVTLQMTSLTAADTATYFCAREIIFHFNLWGPGTLVTVSS
# VL: DVVMTQTPASVSEPVGGTVTIKCQASQSIRSYLAWYQQKPGQPPKVLIYKASTLASGVSSRFKGSGSGTQFTLTISDLECADAATYYCQGGVELNNYLYNPFGGGTEVVVK
# notes: as for B1
# B3: Antibody 25 (antibody, V domains shown)
# VH: QSLEESGGDLVKPGASLTLICTASGFDLNTNYWICWVRQAPGKGLEWIACIDSGYGDIYYATWAKGRFTISKASSTTVTLQMTSLTAADTATYFCAREIIFHFNLWGPGTLVTVSS
# VL: DVVMTQTPASVSEPVGGTVTIKCQASQSIRSYLAWYQQKPGQPPKVLIYKASTLASGVSSRFKGSGSGTQFTLTISDLECADAATYYCQGGVEFNNYLYNSFGGGTEVVVK
# notes: as for B1
# B4: Antibody 49 (antibody, V domains shown)
# VH: QSLEESGGDLVKPGASLTLTCTASGFDLNSNYWICWVRQAPGKGLEWIACIDTGYGDIYYASWAKGRFTISKTSSTTVTLQMTSLTAADTATYFCAREIIFHFNLWGPGTLVTVSS
# VL: DVVMTQTPASVSEPVGGTVTIKCQASQSISSYLAWYQQKPGQPPKVLIYKASTLASGVSSRFKGSGSGTQFTLTISDLECADAATYYCQGGVEVNNYLYNPFGGGTEVVVK
# notes: as for B1
# B5: Antibody 37 (antibody, V domains shown)
# VH: QSLEESGGDLVQPEGSLTLTCKASGLDFSSSYWICWVRQAPGKGLEWIACIDTGYGDIYYASWAKGRFTMSKTSSTTVTLQMTSLTAADTATYFCAREKIFHFNLWGPGTLVTVSS
# VL: DVVMTQTPASVSEPVGGTVTIKCQASQSIKNYLSWYQQKPGQPPKVLLYKASTLASGVSSRFKGSGSGTQFTLTISDLECADAATYYCQGGVEVNNYLYNPFGGGTEVVVK
# notes: as for B1
# B6: Antibody 65 (antibody, V domains shown)
# VH: QSVEESGGRLVTPGTPLTLTCTVSGFSLNNYYMTWVRQAPGKGLEWIGVISGSATTYYASWAKGRFTISQTSTTVDLRITSPTTEDTATYFCARSLTADIIDYYNIWGPGTLVTVSL
# VL: DVVMTQTPASVSEPVGGTVTIKCQASEDINALLAWYQQKPGQPPKLLIYVASYLQSGVPSRFKGSGSGTEYTLTISGVQCADAATYYCQSAYDSSGYVGAFGGGTEVVVK
# notes: as for B1
# B7: Antibody 86 (antibody, V domains shown)
# VH: QEQLKESGGGLVTPGGTLTLTCTVSGIDLSNYAMVWVRQAPGKGLEWIGIIYTTASTTYANWAKGRFTISKTSTTVDLKITSPTTEDTATYFCVRRSGWDGFDPWGPGTLVTVSS
# VL: AQVLTQTPASVSAAVGGTVTINCQASESISSYLNWYQQKPGQPPKRLIYRTSTLASGVPSRFKGSGSGTDFTLTISGVECADAATYYCQQDWSSSDVENVFGGGTEVVVK
# notes: as for B1
# B8: Antibody 77.B08 (antibody, V domains shown)
# VH: QEHLVESGGGLVQPEGSLTLTCTASGFDFSSDDMSWVRQAPGKGLEWIGVIGTGNGGTYYASWAKGRFTISKTSSTTVTLQMTSLTAADTATYFCAAFWGLWGPGTLVTVSS
# VL: AQVLTQTASPVSTPVGGTVTITCQSSQSVYNNNRLAWFQQKPGQPPKLLIYTASTLASGVPSRFKGSGSGTQFTLTISDLECDDAATYYCAGGYSTDIYTFGGGTEVVVR
# notes: as for B1
# B9: Antibody B08 (antibody, V domains shown)
# VH: QEHLVESGGGLVQPEGSLTLTCTASGFDFSSDDMSWVRQAPGKGLEWIGVIGTGNGGTYYASWAKGRFTISKTSSTTVTLQMTSLTAADTATYFCAAFWGLWGPGTLVTVSS
# VL: AQVLTQTASPVSAAVGGTVTITCQSSQSVYNNIRLAWFQQKPGQPPKLLIYTTSSLASGVPSRFKGSGSGTQFTLTISDLECDDAATYYCAGGYSSDIYTFGGGTEVVVR
# notes: as for B1
# B10: Antibody D08 (antibody, V domains shown)
# VH: QSLEESGGRLVTPGTPLTLTCTVSGFSLGTYWMSWVRQAPGRGLDWIGFIGSSGNGNYASWAKGRFTISRASSTTVDLKMTSLTTEDTATYFCARVKYFYYFDLWGQGTLVTVSS
# VL: AQVLTQTTSPVSAAVGGTVTINCQASESVYGKKYLSWYQQKPGQPPKQLIYEASKLASGVPSRFEGSGSGTQFTLTISGVQCDDAATYYCQGEFSCSSADCTAFGGGTEVVVK
# notes: as for B1
# B11: Antibody 87 (antibody, V domains shown)
# VH: QSVEESGGRLVTPGTPLTVTCTVSGFSLSSYVMSWVRQAPGKGLEWIGIIASSGHTYYATWAKGRFTISKTSTTVDLKITSPTTEDTATYFCARYGSDSGWGYYFTLWGPGTLVTVSS
# VL: AQVLTQTPSSVSEPVGGTVTINCQASENIYSYLSWYQQKRGQPPKLLIYGASTLASGVPSRFKGSGSGTEYTLTISDLECDDAATYYCQSGYYTNSGDLAFGGGTEVVVK
# notes: as for B1
# Legend:
# [1] = biological target: T1, recombinant Fc chimeric conjugate of human HER2 (human, UniProt P04626 23-652); assay: ELISA, coated antigen; supernatant IgG 1500.0 ng/ml
# T1 construct: extracellular domain; Coated on the ELISA plate
# Protocol: (§1) Microtiter plates were coated with a) c-Met, IGF-1R, EGFR, HER2, and/or HER3 protein or b) EGFR, HER2, and/or HER3 (recombinant Fc chimeric conjugates of human c-Met, IGF-1R, EGFR, HER2, HER3 or IL12 Rβ1). After a blocking process, specific antibodies from B-cell supernatants bind to the targets and are then detected by a POD-labeled anti-rabbit IgG antibody. The IL12R binding was used as a counter-screen.
# (§2) 12.5 μL 0.5 μg/mL protein in PBS was transferred to a microtiter plate incubated and washed 3× with Wash Buffer. 90 μL Block Buffer was added to each well, incubated and washed. 12.5 μL Standard Antibody (Anti-EGF-Receptor; HER2 Rabbit anti-Human Monoclonal (extracellular domain) (SP3) Antibody; HER3 (N-terminal) antibody; start concentration 2 μg/ml; IL-12Rbeta1 antibody start concentration 500 ng/ml) in 1:2 dilutions or sample diluted in ELISA buffer was added, incubated and washed. 12.5 μl 1:5000 POD-Antibody (Anti-rabbit IgG, peroxidase-linked species-specific Fab2 fragment (from donkey) (ECL); assay dilution: 1:5000) in Elisa Buffer was added, incubated and washed. 15 μl TMB was added and 15 μl HCl was added after sufficient development. Absorbance (Optical Density O.D.) was read at 450 nm/620 nm.
# [2] = biological target: T2, recombinant Fc chimeric conjugate of human EGFR (human, UniProt P00533 25-645); assay: as above
# T2 construct: extracellular domain; Coated on the ELISA plate; also called HER1; Her1
# Protocol: as §1, §2
# [3] = biological target: T3, recombinant Fc chimeric conjugate of human HER3 (human, UniProt P21860 20-643); assay: ELISA, coated antigen
# T3 construct: extracellular domain; Coated on the ELISA plate
# Protocol: as §1, §2
# [4] = biological target: T1, recombinant Fc chimeric conjugate of …; assay: ELISA, coated antigen; supernatant IgG 81.8 ng/ml
# Protocol: as §1, §2
# [5] = biological target: T2, recombinant Fc chimeric conjugate of …; assay: ELISA, coated antigen; supernatant IgG 81.8 ng/ml
# Protocol: as §1, §2
# [6] = biological target: T3, recombinant Fc chimeric conjugate of …; assay: ELISA, coated antigen; supernatant IgG 81.8 ng/ml
# Protocol: as §1, §2
# [7] = biological target: T1, recombinant Fc chimeric conjugate of …; assay: ELISA, coated antigen; supernatant IgG 1148.9 ng/ml
# Protocol: as §1, §2
# [8] = biological target: T2, recombinant Fc chimeric conjugate of …; assay: as above
# Protocol: as §1, §2
# [9] = biological target: T3, recombinant Fc chimeric conjugate of …; assay: as above
# Protocol: as §1, §2
# [10] = biological target: T1, recombinant Fc chimeric conjugate of …; assay: ELISA, coated antigen; supernatant IgG 377.5 ng/ml
# Protocol: as §1, §2
# [11] = biological target: T2, recombinant Fc chimeric conjugate of …; assay: ELISA, coated antigen; supernatant IgG 377.5 ng/ml
# Protocol: as §1, §2
# [12] = biological target: T3, recombinant Fc chimeric conjugate of …; assay: ELISA, coated antigen; supernatant IgG 377.5 ng/ml
# Protocol: as §1, §2
# [13] = biological target: T1, recombinant Fc chimeric conjugate of …; assay: ELISA, coated antigen; supernatant IgG 719.9 ng/ml
# Protocol: as §1, §2
# [14] = biological target: T2, recombinant Fc chimeric conjugate of …; assay: ELISA, coated antigen; supernatant IgG 719.9 ng/ml
# Protocol: as §1, §2
# [15] = biological target: T3, recombinant Fc chimeric conjugate of …; assay: ELISA, coated antigen; supernatant IgG 719.9 ng/ml
# Protocol: as §1, §2
# [16] = biological target: T1, recombinant Fc chimeric conjugate of …; assay: ELISA, coated antigen; supernatant IgG 425.7 ng/ml
# Protocol: as §1, §2
# [17] = biological target: T2, recombinant Fc chimeric conjugate of …; assay: ELISA, coated antigen; supernatant IgG 425.7 ng/ml
# Protocol: as §1, §2
# [18] = biological target: T3, recombinant Fc chimeric conjugate of …; assay: ELISA, coated antigen; supernatant IgG 425.7 ng/ml
# Protocol: as §1, §2
# [19] = biological target: T1, recombinant Fc chimeric conjugate of …; assay: ELISA, coated antigen; supernatant IgG 1500.0 ng/ml; remark: listed apart in the source
# Protocol: as §1, §2
# [20] = biological target: T2, recombinant Fc chimeric conjugate of …; assay: as above; remark: listed apart in the source
# Protocol: as §1, §2
# [21] = biological target: T3, recombinant Fc chimeric conjugate of …; assay: as above
# Protocol: as §1, §2
# [22] = biological target: T1, recombinant Fc chimeric conjugate of …; assay: ELISA, coated antigen; supernatant IgG 51.60 ng/mL
# Protocol: as §1, §2
# [23] = biological target: T4, recombinant Fc chimeric conjugate of human c-Met (human, UniProt P08581 25-932); assay: ELISA, coated antigen; supernatant IgG 51.60 ng/mL
# T4 construct: extracellular domain; Coated on the ELISA plate
# Protocol: as §1, §2
# [24] = biological target: T3, recombinant Fc chimeric conjugate of …; assay: ELISA, coated antigen; supernatant IgG 51.60 ng/mL
# Protocol: as §1, §2
# [25] = biological target: T1, recombinant Fc chimeric conjugate of …; assay: ELISA, coated antigen; supernatant IgG 183.28 ng/mL
# Protocol: as §1, §2
# [26] = biological target: T4, recombinant Fc chimeric conjugate of …; assay: as above
# Protocol: as §1, §2
# [27] = biological target: T2, recombinant Fc chimeric conjugate of …; assay: as above
# Protocol: as §1, §2
# [28] = biological target: T3, recombinant Fc chimeric conjugate of …; assay: as above
# Protocol: as §1, §2
# [29] = biological target: T1, recombinant Fc chimeric conjugate of …; assay: ELISA, coated antigen
# Protocol: as §1, §2
# [30] = biological target: T5, recombinant Fc chimeric conjugate of human IGF-1R (human, UniProt P08069 31-935); assay: ELISA, coated antigen
# T5 construct: extracellular domain; Coated on the ELISA plate
# Protocol: as §1, §2
# [31] = biological target: T2, recombinant Fc chimeric conjugate of …; assay: ELISA, coated antigen
# Protocol: as §1, §2
# T3 sequence (P21860 20-643, change not shown): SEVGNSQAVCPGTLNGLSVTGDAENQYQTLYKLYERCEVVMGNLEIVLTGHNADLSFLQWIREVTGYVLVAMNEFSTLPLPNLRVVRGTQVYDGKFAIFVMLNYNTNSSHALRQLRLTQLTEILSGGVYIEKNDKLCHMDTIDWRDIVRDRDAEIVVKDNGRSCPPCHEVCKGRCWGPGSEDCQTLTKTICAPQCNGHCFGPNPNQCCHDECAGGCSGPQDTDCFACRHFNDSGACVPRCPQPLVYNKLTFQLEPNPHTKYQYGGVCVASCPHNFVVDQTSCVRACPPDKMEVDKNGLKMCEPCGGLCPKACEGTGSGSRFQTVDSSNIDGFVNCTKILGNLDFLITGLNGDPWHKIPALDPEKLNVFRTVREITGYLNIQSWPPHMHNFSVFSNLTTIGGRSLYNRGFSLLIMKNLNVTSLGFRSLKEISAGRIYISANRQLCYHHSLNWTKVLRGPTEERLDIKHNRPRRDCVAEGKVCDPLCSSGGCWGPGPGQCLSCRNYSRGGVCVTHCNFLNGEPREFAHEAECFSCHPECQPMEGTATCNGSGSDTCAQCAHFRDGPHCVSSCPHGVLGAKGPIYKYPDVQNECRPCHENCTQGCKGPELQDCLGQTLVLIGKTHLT
# T4 sequence (P08581 25-932, change not shown): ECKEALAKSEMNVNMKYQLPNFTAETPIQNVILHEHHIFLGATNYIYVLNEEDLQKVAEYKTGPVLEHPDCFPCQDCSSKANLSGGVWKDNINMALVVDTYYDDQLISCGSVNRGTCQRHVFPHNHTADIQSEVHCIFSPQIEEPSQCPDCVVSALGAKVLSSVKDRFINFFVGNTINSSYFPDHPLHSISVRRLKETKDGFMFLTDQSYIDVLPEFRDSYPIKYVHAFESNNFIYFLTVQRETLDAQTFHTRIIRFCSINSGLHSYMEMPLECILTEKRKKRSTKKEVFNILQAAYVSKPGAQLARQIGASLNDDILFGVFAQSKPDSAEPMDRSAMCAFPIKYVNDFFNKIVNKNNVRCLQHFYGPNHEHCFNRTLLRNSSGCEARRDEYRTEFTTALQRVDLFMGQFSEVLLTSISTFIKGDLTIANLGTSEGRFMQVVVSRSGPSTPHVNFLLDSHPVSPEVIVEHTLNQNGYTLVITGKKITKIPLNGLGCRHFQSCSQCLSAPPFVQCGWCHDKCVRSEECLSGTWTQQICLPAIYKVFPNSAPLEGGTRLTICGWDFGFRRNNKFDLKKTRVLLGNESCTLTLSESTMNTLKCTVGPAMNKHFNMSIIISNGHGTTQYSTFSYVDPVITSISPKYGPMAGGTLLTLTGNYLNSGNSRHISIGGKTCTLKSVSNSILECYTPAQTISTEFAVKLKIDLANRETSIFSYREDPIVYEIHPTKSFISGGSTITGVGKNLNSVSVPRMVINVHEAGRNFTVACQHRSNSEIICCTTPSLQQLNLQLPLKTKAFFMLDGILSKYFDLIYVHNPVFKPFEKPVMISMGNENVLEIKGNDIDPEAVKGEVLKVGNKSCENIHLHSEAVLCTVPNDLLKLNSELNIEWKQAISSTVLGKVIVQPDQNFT
# T5 sequence (P08069 31-935, change not shown): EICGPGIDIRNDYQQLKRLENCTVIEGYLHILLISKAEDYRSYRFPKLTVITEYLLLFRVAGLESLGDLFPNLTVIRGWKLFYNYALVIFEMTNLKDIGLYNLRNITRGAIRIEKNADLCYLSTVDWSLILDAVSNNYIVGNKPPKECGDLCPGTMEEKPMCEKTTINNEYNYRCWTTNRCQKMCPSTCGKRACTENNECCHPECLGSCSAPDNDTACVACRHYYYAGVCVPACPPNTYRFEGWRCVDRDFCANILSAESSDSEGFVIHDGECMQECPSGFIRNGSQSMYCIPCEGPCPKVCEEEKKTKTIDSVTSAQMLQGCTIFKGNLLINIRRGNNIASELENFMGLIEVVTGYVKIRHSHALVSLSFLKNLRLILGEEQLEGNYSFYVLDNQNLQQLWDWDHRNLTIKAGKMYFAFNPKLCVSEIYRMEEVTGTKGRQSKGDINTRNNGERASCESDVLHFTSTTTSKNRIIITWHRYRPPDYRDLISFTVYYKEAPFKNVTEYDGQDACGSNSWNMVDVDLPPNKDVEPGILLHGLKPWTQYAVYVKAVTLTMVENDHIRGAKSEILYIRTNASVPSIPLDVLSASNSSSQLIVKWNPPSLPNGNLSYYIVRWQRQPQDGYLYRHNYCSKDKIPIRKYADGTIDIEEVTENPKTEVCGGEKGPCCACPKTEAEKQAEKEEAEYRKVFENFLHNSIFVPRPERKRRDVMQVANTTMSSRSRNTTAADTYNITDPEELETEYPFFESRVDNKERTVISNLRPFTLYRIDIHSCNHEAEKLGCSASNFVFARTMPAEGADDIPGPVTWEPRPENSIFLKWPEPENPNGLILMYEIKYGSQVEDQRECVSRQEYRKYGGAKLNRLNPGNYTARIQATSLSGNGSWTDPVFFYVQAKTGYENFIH
binder,measurement,setting,value
B1,Optical density (OD),[1],2.5 OD
same,Optical density (OD),[2],1.5 OD
same,binding result,[3],no binding (tested: OD 0.1 or lower)
B2,Optical density (OD),[4],1.2 OD
same,Optical density (OD),[5],1.2 OD
same,Optical density (OD),[6],1.1 OD
B3,Optical density (OD),[7],2.4 OD
same,Optical density (OD),[8],3.3 OD
same,Optical density (OD),[9],2.6 OD
B4,Optical density (OD),[10],0.4 OD
same,Optical density (OD),[11],2.5 OD
same,Optical density (OD),[12],0.6 OD
B5,Optical density (OD),[13],2.7 OD
same,Optical density (OD),[14],2.9 OD
same,Optical density (OD),[15],2.7 OD
B6,Optical density (OD),[16],2.9 OD
same,Optical density (OD),[17],2.5 OD
same,Optical density (OD),[18],1.9 OD
B7,Optical density (OD),[19],1.8 OD
same,Optical density (OD),[20],1.1 OD
same,Optical density (OD),[21],0.8 OD
B8,Optical density (OD),[22],0.112 OD
same,Optical density (OD),[23],0.144 OD
same,Optical density (OD),[24],0.242 OD
B9,Optical density (OD),[25],0.402 OD
same,Optical density (OD),[26],0.7 OD
same,Optical density (OD),[27],0.405 OD
same,Optical density (OD),[28],1.14 OD
B10,binding result,[29],no binding (tested: OD 0.1 or lower)
same,binding result,[30],no binding (tested: OD 0.1 or lower)
B11,binding result,[31],no binding (tested: OD 0.1 or lower)

# — patent US20150259430A1 (MAB DISCOVERY, published 2015)
